test: soluble fraction after stress (log2 fold change); higher = more stays soluble; pooled small domains, quantitative proteomics; conditions: stress: pH 4
Outline: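 How much of each domain stays soluble after acid stress, expressed as a fold change, is used to gauge aggregation propensity. Pooled custom libraries of small domains underwent pH 4 stress before high-throughput quantitative proteomics. A higher log2 value means more of the domain stayed soluble.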

Sequence	soluble fraction (log2)
HMAPLRTQYVNVNYANAAEIKTLISGADKEVGSLLSERGSVVVDKRTNTLIIQDTQARLNDIGDLIEQLD	-0.52
HMTNEQLSKAKSWVQIAVYAAEKLYGAGNGDQKLVYAEEILRKHGIRLDTATLKAMIDAQIKEMEN	0.131
HMKTRYPNVYQDEKGKFFYQIFIGTDTNGRKKLKKGRRDALGHPFSSAYQASKEAKRVQALYANVS	-0.0451
HMIMTEKEKKLLNRYIMHDTIHKLYHEQNKSMRWIADNLGINFRTVQKYLDMDSGEFQKYSESISNR	-0.141
HMTGDNQTIGGGGFHHVAIRAHDFDASVKFYGETLGFREKIAWGEGDKRAIMMDTGDGNYIEIF	-0.0678
HMDADRILHKTLKPRELEIYQLIKAYLEEHSQIANAKVQEISGLSEATTRRYLNIFVEFGLLKTS	-0.164
HMRSGEDESFSAGLLEYPHYTRPAEFEGHRIPDILTSGDHAKVDAWRQEMSEHITRERRPDLWEMYKKK	0.0228
HMTQLEVDLFERLITISGVGPRLALAVLSGLEPPDLLRAIQDSDIVRLQGIPGVGKKTAERISLELKDKLS	-0.854
HMTEKEEERTEDLNYYRLNLISMLKSSYPEYLDDEEFISNRSQEAAEAFEDAVRSGSNYLDASAESNRTLY	-0.717
HMDLMQRVIIVRPVMQGDYLTRAHLGLQTLSRNGGGGFTDIDDLVGRRAKKSLRAGLVVHNRHL	0.124
HMSDLVATKEQVVEAYKYGLGLGLDNSTLKMLLFDIRGEDVADQDKISDGMTVSEIEIWKEGMRTIAEEYL	-1.07
HMSVIKERLTEFLTYKGIGQIKFAEAAGLSRGFVNVLGDGISSKSLNKISQAFPELNTLWLTTGEGEML	-0.061
HMSLSASELDQLRMMTKVSHMYHTRGMVQIDIARSLGLSQARVSRLLSAAEDANIVRTVVVA	-0.177
HMKSIPKIKWNSTLENIKNFEYQDNFFESKEMYDLLVSFYKYGFVIIKNIPTNNNFIVKFANSIGS	0.121
HMVITEQTVTVKYLYEDDTEAAPEHSETHKTGETFEIESPKIDGFTPDYELITGTIANDDLVYIVRYKTTP	-0.526
HMEVSLEDKMDYLTNYATTHKNFSFRNLLESSSGKIEVIVTFLAILELMKMGRINISQEHIFDDIIIESRI	-1.8
HMSVKYLQIYHAIREKILSNEYAINQQLPDEITLTKEFNSSRMTVKKALDLLVSEGLIFRKRGQGTFVLSR	≥ 0.43
HMDFSYTVGDIDEPIDSRGNSVIMLRKLAWGSNAEKLEIRRWIIDIDSERANKGVTFLTEEGPHNLVRV	-0.332
HMNRIEMTEPIIIKDLSRETGIPWVAIQKRLAQDGIMANINTTIEAEKAQLIAVDYGIELAVV	-0.54
HMDQILIHLKEGIDVTDVQPMLKALDLNVRMFNRDKNIIVISVLNRELDAIPQTIAALRPWEELFDSA	-0.184
HMDYEVPEELEEKFSENPQFKEAFDNLTPGRQHQYIYHISQAKRSQTRINRIEKYYEHILNGKGMQD	0.416
HMAQLTPREREVLVLIAEGKSNKEIADQLNIGVRTIETHRERIMRRLNIHSVAGLTKYAIANGLVTL	0.0239
HMELPADLATVLSVDDIRAIALAEVPGSTITGVELEREEGVLVYKVKFNDGSYKLYDANTGELV	-0.238
HMTEEDVVIFSGLSDRDLKMVQTELANSGIKYTLPTSGTVSVPNSEIARAQMVLAMAGIPRS	-0.0859
HMPKKLIWERTTSKLQLYITQDRYELKTPLMTIPFTSKSKMMVYLQQRYHLDMQEYRQIYDAG	0.0815
HMADLNFHQQIRSLPPEQQEILLLRFGQELTLRQIAQVTGVPLRTVQSRLRAALKKLKSQLEKEE	-0.0215

Sequence	soluble fraction (log2)
HMKAAQDQDQAATLLQKATGVNQDQAKLAATVLFKEQSVTPIRQAIASGDYYQAYQDAKSLQQQ	0.22
HMTDLVVGLAGITLEPLRPAGKAEFNGSVVDVVSLGDYIEKSTAIQIVEIEGNRIVVHHGED	-1.09
HMDEALLRATLLDVLVKHHPKIGDKLDVVFALAKAWVSSGSDDDFEVLEKYMERLKPDEALMLASGFSNML	-0.819
HMPQLEDLEPLDSSGMVRRDGPHLVLAVGRHRGRHLEEVRDSDPSYLHWLLSPKGIEDIQAKEDIKTYLNL	-0.302
HMDTMINLIGLNLKKAKKELSNLGVNVKKVRYKKSSVYDEGVVIDQSIEAGRNIKNGDFITITVSSGKA	-0.0745
HMLSKEFRFFTYLLESYAQHKNTTAGAVLKTLDEKGLTDFVYKMYDLYHVEAIENAYMDLDSLIATGKPA	-0.989
HMEALNIEQKKVEIINVLLEKGKGKGRLSYKEISDQIDTVELDKDQMDELYETLMTNGIEIV	-1.43
HMTTGLETYPGKIAVVSDDFIDGEGRVQLDGALWRAKTKDHQQLKQGDHVTIVNVKGLTLTVMPDD	-0.0405
HMSEFVIPLAKYNKALYTQVSLGMRFRMLFETEDSGVRRYMGTITGIGDLDPIRWKNSHWRNLQV	0.22
HMEEPEELYRVKILIYNLLVRNGPGILYTRLRRADYPGEYGIYEEKNGYGKISATLSEWISLNTEYVQRLD	-0.378
HMDALKAVYQWVTRTMMKNQTGVMQTLPNRDLIELNTQITAQRLMQAGVDPTTLKNANQVENAVNIIESR	-0.193
HMPDFAENAVYGKQREDSLYAHAYKHFQLGDTTTVRAAEHLSAEIYPLGQHRPKFMFLNAVTR	0.22
HMTKMTPNRQLVLSVLQSSGKPLSAYELLDRLREQGTQWQPPTAYRALDYLVEQGLAHYLQSIQKYV	-0.317
HMADEIMYPVQVNGKVRAEIFVAADQSKNKELVLEMAKSEERVQKYLEEGNLIKEIFVPGRIVNLVI	-0.269
HMISAEPVGEDLFKVAFPFLGGSTVFEKTIEQFIEEHPSKRIDHIYTVPNPLRLKKADALIFYIITEEK	-1.12
HMIKRITDEQHPVDVDRLLVVTFTNAAASEMRERIGDAIEAALEKDPYNQHLQRQLTLVHNAQITTIDS	0.00503
HMIINKFERRKEIQIQFNNQERIKFKDFFLNLSKENIIVSFLILLELVRESLIDFSGTNENDIEFFIK	-0.834
HMENIIFDIGFHKGEDTLFYLLKGYRVIAVDADPDLINEWQNIFKKYIENGKLLLLNYVISDT	-1.18
HMSATIMVLRASEDIPVGTEIKDNHLTTVEVGSYGLPEGAINDKDTVLGKVAQTNIIKGDYFFPQKLGG	-1.18
HMDLPAEFSKPELETLFKRGKQSGELSLTEVRDALEAAQLPNKKTQTKVLKVLSDNAIHVLMDG	0.0785
HMGPASTGAHQLGLKPGDEVTHRAWGEGVVTSTTGEGDRAEAVVDFDAVGEKRLLLAWAPLER	-0.705
HMSSNLSLHKEGNKIVILGLEGKSVIEVYDLMGRLLSSQTNYNPKQEITLLQPVIIRVTDTQQTKSFKV	-0.132
HMLYGRRFQVEGLNLERYLRAAADSGIPLKGARRFGRTLTGVAAEEHMAALEALARQGGWLFTPLEAVGAN	-0.0895
HMEREQPFAVTEAYRGMRLDRFLQAMLPRMSRAAIQDAIDNRVRLGSGRAAKASLRPAIGDTVFFGQRI	-0.17
HMSYKDIKEASDTGTYRDEENNIDVKWQKLFNGHNEYFDIEAYRDGERVEINNQQADRYIYLIKQEMD	-0.357
HMEKPTEITLSNRVSVQELAEKMYVSETDIIRTLFLDGRIININQVLDIDTAIRVGEQLGIKIKII	-1.49

Sequence	soluble fraction (log2)
HMENHILIIDDDLMLLKTAEEILSDQYNVSVAKSGIQALNLLNKNIIPDLILLDIDMPQMDGYETL	-0.554
HMPTVLKQGSTGQEVKELQQALSKLGYRVTVTGEFDTATHYGVVRFQRKHRLTIDGIVGPQTLSKIRAHQK	-0.0726
HMQENKVLEGKVLEKKKKKVFVDLSPFGVGVIRGVNYLEAKNELKDIEEGDNIKVRVLEIDNENGFIELAL	-1.13
HMENYIEQLTAKNSEYIHVVTRELVKIGKSDEEIKAILSDILPQIVAAQDQRVLAKDILGTPSEFTAKYAP	0.0161
HMVMNYKKIGKKIADRRILLGITQEELAEKVDSSANYISNIETGIKSGSLIFYIKVANELKLSLDFLFSDE	-0.363
HMSQLYINATDDGWVIGNLPADAREVLLTTLGGQVVARYHVTAPSLRVKAPRKGVYIVSVETA	-0.0877
HMAPLATLEADGNGAVKLPNLAGHAIREVAAALGGANLALIPIGSGTSWKQNPAPGTILHKGDTVTVYF	-0.353
HMRPEVALSSRELEILEALATGKSNKELAQRLFISEATVKTHLIHIYQKLGVDTRTAAVTVARERKL	-0.431
HMDIRMLLSDREEEIMILLSKGLSISEAANRMQIGQASAATYLNRARRKLKAETVRQAVAIWTGD	-0.422
HMETLETYTSRLRQLEDITNNFKGVDKSFAIQAGREIRVMVVPEQVSDADMILMARDISKAIEAELEYPGQ	-0.315
HMNPGNTESFPVYQKRLGEIIQTLAGKKGQDINSPEVKELVGEYDFLTKQMFQLPDATSMVMEIATAYRN	-0.224
HMRRARVAGKGHFTGEDAMAVYRELEALFGETETLYLPGHRPFEAVLSKLALIGVPEKNTVPYTFAFVET	-1.09
HMTKAEVLLDLQQRIISEEFLPGSWLVERDLSSEYGLSRTPIREILNKLVILGLISVQKNRGYQVR	-0.792
HMRPQYVDLFTKLSAEEAGAITSKLKELKVEYQLADNGSTIKVPQKDAAEIRLELANEGLPA	-0.283
HMDRDMGSMTDFENVRDAYLTGKVWNVGDLIEANGITGIIIRKGTNYVSYNDGDGKVHKAWLHDITL	-0.98
HMEAVIENAAIIKQNSGGYAVRATVNGVDLGMKPVERATALLYFSLTDKLEKDRLLSHTLQKTYGDLSA	-0.213
HMNLGNLLKIYRKNSLLTQQQVADALNINRTTYTYYETGKTEPSIDTLHKLIKIFGITYDDLL	-0.337
HMPEEGPSEDGNSFTAKFKLGSDVQGAMEQADAAAKAGLQDAGKGTGQITSRAQVGGYIYSTATA	0.22
HMSYGKVQFVIDAKDAVLSIDGKETDYEKPVKLTYGSHTITVYSSDYDTWKRNLYVNSEKSTVVINLA	-0.0156
HMGFVATRSRKFLPFSEARAITRGLGFSNQKDYKEWIKGNGNELLLPFNPWRTYGDSGWKGWKDFLGTDKA	0.0101
HMKKVTMQDIANILNISRVTVWKVLNNQPGVSKQLRDQILLTAKETGYLKPGQEAEAYLEENNIYFEG	-0.344
HMDRWSLLTLTTLAGGTLRFTELKRAIGDISQRMLAQTLRTLEREGYVSRKVYATIPPKVEYRLTALGQSL	≥ 0.43
HMTRQEFIRKLQEALNGKLDAATIQDHLKFYDDYIIEEMRKGKSEQEVLELLGDPWAIAKTIVDAS	-0.44
HMGRMTRKDRALATDLYGRIVGNVDDFHEGRIDYETFSERQRGLWTTLDAAGPEVKRAVLADIRERL	0.23
